Measured values as given in paper PMC2567969.
One block for each molecule: values may come before it.

Legend:
[1] = target: EGF receptor (Homo sapiens) (UniProt P00533); conditions: cited from earlier work
[2] = target: Ik2-MBPHis fusion protein (Drosophila); assay: SPR; ProteOn XPR36, GLC chip; Ik2-MBPHis (1400 RU) and Sec13-MBP (5500 RU) amine-coupled; Spn-F injected at six concentrations 0.1625 to 5 μM; PBS pH 7.4, 0.005% Tween 20, 25°C; global fit to 1:1 Langmuir model

Molecule: EGF (from UniProt P01133)
Kd [1]: 410 nM

Kd [2]: 407 nM | koff [2]: 0.00169 s⁻¹ | kon [2]: 4150 M⁻¹ s⁻¹
B1: Spn-F, recombinant, MBP-His6 tag cleaved (natural protein)
chain: MEASAAKITPMASSMSASGSTNSPSSEKMNYALQVALQTIKERCIQLQRRVASMEEENQQLREASSRSEGAPRANEIGVTGDVLSLKAQVSELQRQKEQLEEHIGMVSNENRRLWSRLSQISKDQQLNALPSSTDSRAQQNQNLVRSKTFTQHSPNPHLRQKMLSDGIKDLSLEEIALDDFGASSEELGYPYNLQKVEETTSEPDANVDAKRCLDGLQELRREAMKQQQELRSVMTLLENRIALKPCPECAQKTIKKPEMADKSLETDDSLTSELKNYESQHNGHNGTPPSQRINIIQEKIKADAADAMEKTCPMCGKQYSSQVSFNAFREHVEMHFIDDALELESENSIERQFEFVSHAVGDF
